The values that follow come from the Human Domainome abundance scans (Beltran et al. 2025).

B1: Proto-oncogene vav, residues 782 to 842; numbered along this chain, P15498 (parent)
chain: KYFGTAKARYDFCARDRSELSLKEGDIIKILNKKGQQGWWRGEIYGRVGWFPANYVEEDYS

± gives the uncertainty stated by the source.

The variants in the data set derive from B1. The data set can be described thus: abundance fitness (aPCA) (normalised: wild type 0, dead -1); higher = more abundant; growth selection in yeast, the domain comes from the species named. The settings on record: Homo sapiens.
In the case of KYFGTAKAEYDFCARDRSELSLKEGDIIKILNKKGQQGWWRGEIYGRVGWFPANYVEEDYS [R9E], the abundance fitness was -0.614 ± 0.25.

With KYFGTAKAIYDFCARDRSELSLKEGDIIKILNKKGQQGWWRGEIYGRVGWFPANYVEEDYS [R9I], the abundance fitness was -0.296 ± 0.13.

Turning to KYFGTAKATYDFCARDRSELSLKEGDIIKILNKKGQQGWWRGEIYGRVGWFPANYVEEDYS [R9T], the abundance fitness is -0.086 ± 0.096.

Consider KYFGTAKAYYDFCARDRSELSLKEGDIIKILNKKGQQGWWRGEIYGRVGWFPANYVEEDYS [R9Y], for which the abundance fitness is -0.821 ± 0.27.

KYFGTAKAFYDFCARDRSELSLKEGDIIKILNKKGQQGWWRGEIYGRVGWFPANYVEEDYS [R9F]: the abundance fitness came to 0.05 ± 0.18.

Turning to KYFGTAKAKYDFCARDRSELSLKEGDIIKILNKKGQQGWWRGEIYGRVGWFPANYVEEDYS [R9K], the abundance fitness was found to be 0.072 ± 0.097.

Turning to KYFGTAKAMYDFCARDRSELSLKEGDIIKILNKKGQQGWWRGEIYGRVGWFPANYVEEDYS [R9M], the abundance fitness is -0.027 ± 0.081.

For the variant KYFGTAKAHYDFCARDRSELSLKEGDIIKILNKKGQQGWWRGEIYGRVGWFPANYVEEDYS [R9H], the abundance fitness was -0.505 ± 0.22.

Consider KYFGTAKAGYDFCARDRSELSLKEGDIIKILNKKGQQGWWRGEIYGRVGWFPANYVEEDYS [R9G], for which the abundance fitness was -0.75 ± 0.12.

As to KYFGTAKASYDFCARDRSELSLKEGDIIKILNKKGQQGWWRGEIYGRVGWFPANYVEEDYS [R9S], the abundance fitness was -0.34 ± 0.088.

On to KYFGTAKANYDFCARDRSELSLKEGDIIKILNKKGQQGWWRGEIYGRVGWFPANYVEEDYS [R9N], for which the abundance fitness is -0.282 ± 0.15.

Consider KYFGTAKAPYDFCARDRSELSLKEGDIIKILNKKGQQGWWRGEIYGRVGWFPANYVEEDYS [R9P], for which the abundance fitness is -0.972 ± 0.3.

Turning to KYFGTAKAWYDFCARDRSELSLKEGDIIKILNKKGQQGWWRGEIYGRVGWFPANYVEEDYS [R9W], the abundance fitness was -0.737 ± 0.2.

As for KYFGTAKACYDFCARDRSELSLKEGDIIKILNKKGQQGWWRGEIYGRVGWFPANYVEEDYS [R9C], the abundance fitness was -0.356 ± 0.11.

With KYFGTKKARYDFCARDRSELSLKEGDIIKILNKKGQQGWWRGEIYGRVGWFPANYVEEDYS [A6K], the abundance fitness was -0.725 ± 0.24.

Regarding KYFGTSKARYDFCARDRSELSLKEGDIIKILNKKGQQGWWRGEIYGRVGWFPANYVEEDYS [A6S], the abundance fitness was -0.654 ± 0.073.

On to KYFGTIKARYDFCARDRSELSLKEGDIIKILNKKGQQGWWRGEIYGRVGWFPANYVEEDYS [A6I], for which the abundance fitness was -0.852 ± 0.13.

In the case of KYFGTPKARYDFCARDRSELSLKEGDIIKILNKKGQQGWWRGEIYGRVGWFPANYVEEDYS [A6P], the abundance fitness is -0.832 ± 0.2.

Regarding KYFGTNKARYDFCARDRSELSLKEGDIIKILNKKGQQGWWRGEIYGRVGWFPANYVEEDYS [A6N], the abundance fitness was -0.905 ± 0.15.

For KYFGTFKARYDFCARDRSELSLKEGDIIKILNKKGQQGWWRGEIYGRVGWFPANYVEEDYS [A6F], the abundance fitness was -0.694 ± 0.11.

In the case of KYFGTTKARYDFCARDRSELSLKEGDIIKILNKKGQQGWWRGEIYGRVGWFPANYVEEDYS [A6T], the abundance fitness is -0.883 ± 0.14.

For the variant KYFGTYKARYDFCARDRSELSLKEGDIIKILNKKGQQGWWRGEIYGRVGWFPANYVEEDYS [A6Y], the abundance fitness is -0.264 ± 0.069.

As for KYFGTHKARYDFCARDRSELSLKEGDIIKILNKKGQQGWWRGEIYGRVGWFPANYVEEDYS [A6H], the abundance fitness is -0.677 ± 0.13.

On to KYFGTVKARYDFCARDRSELSLKEGDIIKILNKKGQQGWWRGEIYGRVGWFPANYVEEDYS [A6V], for which the abundance fitness was -0.214 ± 0.054.

Take KYFGTMKARYDFCARDRSELSLKEGDIIKILNKKGQQGWWRGEIYGRVGWFPANYVEEDYS [A6M]: the abundance fitness was -0.733 ± 0.19.

As for KYFGTAKARYKFCARDRSELSLKEGDIIKILNKKGQQGWWRGEIYGRVGWFPANYVEEDYS [D11K], the abundance fitness was -0.362 ± 0.12.

Turning to KYFGTAKARYLFCARDRSELSLKEGDIIKILNKKGQQGWWRGEIYGRVGWFPANYVEEDYS [D11L], the abundance fitness is -0.607 ± 0.074.

For KYFGTAKARYMFCARDRSELSLKEGDIIKILNKKGQQGWWRGEIYGRVGWFPANYVEEDYS [D11M], the abundance fitness is -0.35 ± 0.091.

With KYFGTAKARYFFCARDRSELSLKEGDIIKILNKKGQQGWWRGEIYGRVGWFPANYVEEDYS [D11F], the abundance fitness was -0.901 ± 0.28.

KYFGTAKARYNFCARDRSELSLKEGDIIKILNKKGQQGWWRGEIYGRVGWFPANYVEEDYS [D11N]: the abundance fitness was 0.086 ± 0.07.

With KYFGTAKARYPFCARDRSELSLKEGDIIKILNKKGQQGWWRGEIYGRVGWFPANYVEEDYS [D11P], the abundance fitness was -0.284 ± 0.1.

Consider KYFGTAKARYCFCARDRSELSLKEGDIIKILNKKGQQGWWRGEIYGRVGWFPANYVEEDYS [D11C], for which the abundance fitness was -0.264 ± 0.15.

In the case of KYFGTAKARYSFCARDRSELSLKEGDIIKILNKKGQQGWWRGEIYGRVGWFPANYVEEDYS [D11S], the abundance fitness was -0.251 ± 0.084.

For KYFGTAKARYAFCARDRSELSLKEGDIIKILNKKGQQGWWRGEIYGRVGWFPANYVEEDYS [D11A], the abundance fitness was -0.103 ± 0.08.

As to KYFGTAKARYGFCARDRSELSLKEGDIIKILNKKGQQGWWRGEIYGRVGWFPANYVEEDYS [D11G], the abundance fitness is -0.258 ± 0.07.

As to KYFGTAKARYEFCARDRSELSLKEGDIIKILNKKGQQGWWRGEIYGRVGWFPANYVEEDYS [D11E], the abundance fitness is -0.159 ± 0.098.

For KYFGTAKARYIFCARDRSELSLKEGDIIKILNKKGQQGWWRGEIYGRVGWFPANYVEEDYS [D11I], the abundance fitness was -0.693 ± 0.49.

With KYFGTAKARYQFCARDRSELSLKEGDIIKILNKKGQQGWWRGEIYGRVGWFPANYVEEDYS [D11Q], the abundance fitness was -0.363 ± 0.14.

For the variant KYFGTAKARYHFCARDRSELSLKEGDIIKILNKKGQQGWWRGEIYGRVGWFPANYVEEDYS [D11H], the abundance fitness was -0.503 ± 0.14.

For the variant KYFGTAQARYDFCARDRSELSLKEGDIIKILNKKGQQGWWRGEIYGRVGWFPANYVEEDYS [K7Q], the abundance fitness is -0.093 ± 0.094.

Regarding KYFGTAMARYDFCARDRSELSLKEGDIIKILNKKGQQGWWRGEIYGRVGWFPANYVEEDYS [K7M], the abundance fitness was found to be 0.006 ± 0.11.

For KYFGTAIARYDFCARDRSELSLKEGDIIKILNKKGQQGWWRGEIYGRVGWFPANYVEEDYS [K7I], the abundance fitness was -0.232 ± 0.17.

As for KYFGTAPARYDFCARDRSELSLKEGDIIKILNKKGQQGWWRGEIYGRVGWFPANYVEEDYS [K7P], the abundance fitness is -0.97 ± 0.29.
